Measured values from US20260274952A1.

Target: T cell surface antigens CTLA4 and PD-1
Experiment: flow cytometry, PHA-stimulated CD4+ T cells, antibody 100 nM (PBS 8.39)

## hIgG (control) (antibody)
  MFI (fluorescence intensity): 10.2
